Measured values published in the supplement of paper PMC11865577.

Key:
Test in all cases: pull-down binding Z-score (relative to library population); higher = stronger binding
[1] = system: G-clamp-N3 (biotin conjugate); details: RNA library: Library-1 (pre-miRNA loops + repeats)
Summary of the method: (§1)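 Streptavidin beads bearing 100 pmol of a biotin-conjugated small molecule were incubated for 60 min at 25 °C with 1 μg of heat-folded, Cy5- or Cy3-end-labelled RNA library in phosphate/NaCl/KCl buffer. Hot SDS eluted the RNA that stayed bound after three washes, and this RNA was hybridised for 20 h at 55.5 °C to a DNA barcode microarray. Binding was expressed as a Z-score against the library mean and standard deviation, after subtraction of a beads-only signal and trimmed averaging of barcoded replicate probes.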

[2] = system: TO-3-N3 (biotin conjugate); details: RNA library: Library-2
Summary of the method: as §1

[3] = system: TO-3-N3-2 (biotin conjugate); details: RNA library: Library-2
Summary of the method: as §1

[4] = system: TO-N3 (biotin conjugate); details: RNA library: Library-2
Summary of the method: as §1

[5] = system: TO-N3-2 (biotin conjugate); details: RNA library: Library-2
Summary of the method: as §1

Sequence | pull-down binding Z-score [1] | pull-down binding Z-score [2] | pull-down binding Z-score [3] | pull-down binding Z-score [4] | pull-down binding Z-score [5]
GACAUGCUCUGACUCCCCUGAUGUC [hsa-mir-6852] | 0.588 | -0.0796 | 0.244 | 0.286 | 1.18
GACCAAAAGUCAACAUUAAACAACAAAUCUUGGCC [hsa-mir-5708] | -1.3 | -0.733 | -0.109 | -1.02 | -0.998
GACCCCCAUGCACCCCUGUGGGCCCCUGGCAUC [hsa-mir-1257] | -1.71 | 0.219 | -0.0626 | 0.727 | 1.21
GACCGUUGGCAUCUUAAUUACCCUC [hsa-mir-532] | -0.675 | -0.448 | -0.339 | -0.233 | 0.318
GACCUGGAUGUGUAGGAGCUAAGACACACUCCAGGGG [hsa-mir-920] | 1.89 | 0.595 | 0.531 | 0.902 | 1.41
GACGAUUUGAAUUAAUAAAUUC [hsa-mir-579] | 0.799 | 0.329 | 0.0871 | 0.153 | -0.419
GACGGCGCCCGCCCUGGCCCUGGC [hsa-mir-4745] | 0.486 | 0.678 | 0.0825 | 1.16 | 1.96
GACGGUGGGGGCCACGCUGACAGCCGC [hsa-mir-6804] | 1.9 | 2.01 | 0.752 | 2.24 | 1.89
GACGUCCAAUCUCUUUGGGACGCC [hsa-mir-2682] | 2.24 | 0.551 | -0.309 | 0.419 | -0.436
GACGUGAAGGGACCACAUCCCGCUUCAUGUC [hsa-mir-4697] | -0.0598 | 0.541 | -0.362 | 0.374 | 0.229
GACUGCUCAAGGUCAAAGGGGUC [hsa-mir-3918] | 2.12 | 0.174 | 0.119 | 0.367 | 0.66
GACUGGACAACAUGAUGAGCCCAAACCAAUC [hsa-mir-5092] | -1.85 | -0.245 | 0.166 | 0.0433 | 0.433
GACUUCCAUGACAUGAAAUAGGAAGUC [hsa-mir-616] | 0.351 | -0.453 | -0.183 | -1.12 | -0.705
GACUUGAGAUUAUAGUC [hsa-mir-3685] | -0.369 | 0.268 | -0.13 | -0.0763 | -0.546
GACUUUUCUAUUUUCCAAAAGC [hsa-mir-423] | -0.657 | -0.475 | -0.142 | -0.568 | -0.573
GAGAAACUUGAGGUCUCUGGGAGUUGCUUAAACCAGUUGACCGUAACCUGGCCAGAGAAUUCUGAUAGUGUC [hsa-mir-6740] | 1.09 | -0.13 | -0.00402 | 0.571 | 1.32
GAGAACUCACGGUGCCUGUGGUUCGA [hsa-mir-3125] | -0.479 | -0.41 | -0.203 | 0.312 | 1.49
GAGACAACUUCCCAGUCUC [hsa-mir-6717] | -0.0467 | -0.96 | -0.519 | -1.17 | -0.848
GAGACACCCGCUACCUGGUGUU [hsa-mir-4321] | -0.619 | -0.271 | -0.213 | -0.0464 | 0.471
GAGACACUC [hsa-mir-6126] | -0.909 | -0.431 | -0.578 | -0.502 | -0.469
GAGACGCUUUUAAAGUCUC [hsa-mir-3926-2] | 0.131 | -0.631 | -0.552 | -0.855 | -1.22
GAGACUGCCCAAAGACUCUUCAGUAUC [hsa-mir-2681] | -0.411 | 0.782 | 0.272 | 0.738 | 0.223
GAGACUUAGAAAUCCCUAAGUCUC [hsa-mir-3921] | 0.443 | -0.258 | -0.246 | -0.761 | -0.875
GAGACUUUAAAAGCGUCUC [hsa-mir-3926-1] | 0.184 | -0.747 | -0.343 | -0.993 | -1.01
GAGACUUUGUGAUUUGUCUCCAAAGCCUC [hsa-mir-6862-2_6862-1] | -1.06 | 0.202 | -0.468 | 0.0513 | -0.157

Sequence | pull-down binding Z-score [1] | pull-down binding Z-score [2] | pull-down binding Z-score [3] | pull-down binding Z-score [4] | pull-down binding Z-score [5]
GAGAGAGUGCACAGCCAGCUCAGGGAUUAAAGCUCUUUCUCUCUCUCUC [hsa-mir-7110] | -0.385 | -0.181 | 0.535 | 0.311 | 1.09
GAGAGUGCUGUCUGAAUGCAAUGC [hsa-mir-500a] | 1.08 | 0.797 | 0.291 | 0.89 | 0.766
GAGAGUGCUUUCUGAAUGCAAUGC [hsa-mir-501] | 1.7 | -0.342 | -0.161 | -0.14 | 0.716
GAGAUGUGAUCCUGCCACAUCUC [hsa-mir-1304] | 0.421 | -0.09 | -0.00394 | -0.261 | -0.363
GAGCCCUGAGGGGCUC [hsa-mir-6087] | 1.46 | 0.542 | -0.303 | 0.283 | -0.191
GAGCCCUUGCACACCACCAGCCUC [hsa-mir-6845] | -1.73 | -0.0477 | 0.134 | 0.375 | 0.822
GAGCCUGUCACAUCUCCAGACUC [hsa-mir-3925] | -1.04 | 0.0173 | -0.227 | -0.15 | 0.208
GAGCCUUAAAGGAUGAGGUA [hsa-mir-4280] | -0.485 | 0.0602 | 0.063 | 0.362 | 0.54
GAGCUCAGGAGCUC [hsa-mir-8052] | 0.271 | -0.634 | -0.529 | -0.9 | -0.448
GAGCUGGAAGGAGUGGGCCUGGCUC [hsa-mir-6847] | 4.26 | 0.4 | 0.387 | 0.634 | 1.45
GAGCUGGGUGGGGUGCCAAGCCU [hsa-mir-6819] | 1.38 | 2.3 | 1.71 | 2.43 | 2.06
GAGCUUCGUGUACAUUAUCUAUUAGAAAAUGAAGUAC [hsa-mir-4724] | -0.219 | 0.0277 | -0.033 | 0.0579 | 0.0115
GAGGAUGCAGGAGAGGAAGGGGGCUUCUUUUUGACGCCUACUUCAUCAGCUGCUCCUC [hsa-mir-4330] | 0.824 | 2.31 | 2.41 | 2.26 | 1.56
GAGGCCAGAGGUGCCC [hsa-mir-4292] | 0.687 | -0.0325 | 0.122 | 0.295 | 1.3
GAGGCCUCUUGCCAUGGCCUCC [hsa-mir-7113] | -1.1 | -0.486 | -0.378 | -0.406 | 0.766
GAGGGAUGAGUGCACUUCACCUGC [hsa-mir-4435-1_4435-2] | 0.0709 | -0.191 | 0.0965 | 0.375 | 0.859
GAGGGGCAUGCACUGUGUUCACCCUG [hsa-mir-134] | -0.276 | 0.47 | -0.0434 | 0.687 | 0.807
GAGGGGCUUACUGCCCUGUGGGGCUCUCUGGACCCAGUGCCAUGCUUCUC [hsa-mir-6728] | 0.541 | -0.224 | -0.363 | 0.295 | 1.23
GAGGUCUUCCCAUGCUAAGAAGUCCUC [hsa-mir-2116] | -0.641 | 1.51 | 0.115 | 1.19 | -0.154
GAGGUGGGAAGGCUGCCCCAAAUGGCCUCUAACAUCCCUUCCAGUCUCCUCCUC [hsa-mir-6127] | -0.236 | -0.0543 | 0.23 | 0.194 | 0.919
GAGGUUGCAGUGAGCCAAGAUCGUG [hsa-mir-4459] | 2.18 | -0.147 | 0.278 | 0.743 | 1.33
GAGUACCUUCCAACACGAGCUCUC [hsa-mir-3664] | -1.16 | -0.183 | -0.173 | 0.318 | 1.06
GAGUAUUUUAAUACUGGCAUACUC [hsa-mir-1263] | -0.0468 | -0.584 | 0.095 | -0.837 | -0.98
GAGUCAGAAAAACUAC [hsa-mir-601] | -1.28 | 0.125 | -0.0131 | 0.484 | 0.271
GAGUCCUAUUUAUUUUUAGGAUAUUAGGAA [hsa-mir-5692c-2] | -0.397 | -0.421 | -0.148 | -0.394 | -0.62

Sequence | pull-down binding Z-score [1] | pull-down binding Z-score [2] | pull-down binding Z-score [3] | pull-down binding Z-score [4] | pull-down binding Z-score [5]
GAGUGAAUC [hsa-mir-3610] | -0.304 | -0.31 | -0.35 | -0.454 | -0.552
GAGUGAGGCCCAGUGGUCACCGCCGCCCUC [hsa-mir-4754] | -0.652 | 0.828 | 0.3 | 1.11 | 1.73
GAGUGGUCGGGUCGACUGAACC [hsa-mir-4726] | -0.197 | 0.829 | 0.454 | 1.23 | 1.34
GAGUGUAAUUACGUACAUGCAGUAGCUC [hsa-mir-618] | 0.413 | 0.405 | 0.182 | 0.341 | 0.152
GAGUUGCUGAGUGGGUUGAUCUC [hsa-mir-6764] | 0.494 | 0.17 | 0.061 | 0.122 | 0.652
GAGUUUGGAAUUAAAAUCAAAACC [hsa-mir-181a-1] | -0.118 | -0.619 | -0.129 | -0.398 | 0.419
GAGUUUGGAGUCGGUGGGUGGAGCCAAACUG [hsa-mir-6860] | 2.37 | 1.13 | 0.706 | 1.5 | 1.52
GAGUUUGGGAUUUGAAAAAACC [hsa-mir-181a-2] | 0.843 | 0.253 | 0.292 | 0.394 | 0.793
GAGUUUGGGCAGCUCAGGCAAACC [hsa-mir-181c] | 0.335 | -0.201 | 0.132 | 0.492 | 1.12
GAUAUGCCAUUAUGUGGGUCAUGAGGUGGUGA [hsa-mir-6864] | 0.225 | 0.197 | 0.416 | 0.738 | 1.54
GAUCCAGCCCAGGCUGGUUCCGCUGAC [hsa-mir-4522] | -0.211 | 1.15 | 0.351 | 1.23 | 1.51
GAUCCGGGAACCCACAGCCCCGUUC [hsa-mir-6783] | 0.0468 | 0.496 | 0.149 | 0.886 | 1.08
GAUCCUUUGUUCUGGAUC [hsa-mir-7856] | 0.436 | 0.118 | -0.283 | -0.266 | -0.63
GAUGAAGAUUAAUCCCUAAUCCCCAACA [hsa-mir-6757] | -1.77 | -0.283 | -0.0684 | 0.0739 | 0.739
GAUGCUGUAUAUCUGAAAGGUAC [hsa-mir-101-2] | -0.649 | -0.357 | -0.144 | -0.126 | 0.383
GAUGCUGUCUAUUCUAAAGGUAC [hsa-mir-101-1] | -0.819 | -0.772 | -0.32 | -0.577 | 0.0666
GAUGGAGGAAUCACAUGAAUUCAUC [hsa-mir-2115] | 0.704 | -0.415 | -0.362 | -0.627 | -0.351
GAUGGAUUCUUAUGCUCCAUC [hsa-mir-136] | 0.328 | -0.326 | -0.443 | -0.631 | -0.9
GAUGGGAUUAGAAACCAUAUGUCUCAUC [hsa-mir-3617] | 0.264 | 0.0209 | -0.165 | -0.25 | -0.438
GAUGUAUCCAAGUACCCUGUGUUAUUUGGCAAUAAAUACAUC [hsa-mir-1298] | -1.2 | -0.204 | -0.361 | -1.27 | -0.35
GAUGUUUCUGCCAGUUUAGCGUC [hsa-mir-505] | -0.68 | 0.0284 | -0.0968 | 0.0886 | 0.324
GAUUAUUGUAAGCAGGAUCCAUUCAAUAAUC [hsa-mir-5188] | -0.228 | -0.19 | -0.383 | -0.366 | -0.703
GAUUCGCUUUACUUAUGACGAAUC [hsa-mir-382] | -0.449 | -0.268 | -0.107 | -0.424 | -0.716
GAUUCUGAUUCAGGGACCAAGAUUC [hsa-mir-544a] | 0.649 | 0.724 | 0.354 | 1.04 | 0.414
